Test results reported in publication PMC5301203.

Columns and labels:
[1] = molecular target: ScaE cohesin of R. flavefaciens FD-1; test: ELISA; details: read off a plot
[2] = molecular target: group-6 dockerin D61, thioredoxin-fused (pETG-20A) (Ruminococcus flavefaciens FD-1); test: ITC; thioredoxin-fused dockerin (20-30 uM) in the cell, cohesin (80-180 uM) injected; 308.16 K; 50 mM Na-HEPES pH 7.5, 2 mM CaCl2, 0.5 mM TCEP; single-site model
[3] = molecular target: group-3 dockerin D37, thioredoxin-fused (pETG-20A) (Ruminococcus flavefaciens FD-1); test: as above
[4] = molecular target: dockerin D61 (group 6) of R. flavefaciens FD-1 (Ruminococcus flavefaciens FD-1); test: ITC; 10-uL aliquots of 80-180 uM cohesin injected into 20-30 uM thioredoxin-fused dockerin; 308.16 K; 50 mM Na-HEPES pH 7.5, 2 mM CaCl2, 0.5 mM TCEP; single-site model
[5] = molecular target: dockerin D37 (group 3) of R. flavefaciens FD-1 (Ruminococcus flavefaciens FD-1); test: as above
[6] = molecular target: group-2 dockerin D35 (ZP_06143271), thioredoxin-fused (pETG-20A) (Ruminococcus flavefaciens FD-1); test: ITC; thioredoxin-fused dockerin (20-30 uM) in the cell, cohesin (80-180 uM) injected; 308.16 K; 50 mM Na-HEPES pH 7.5, 2 mM CaCl2, 0.5 mM TCEP; single-site model
[7] = molecular target: ScaH dockerin D49, thioredoxin-fused (pETG-20A) (Ruminococcus flavefaciens FD-1); test: as above
Sequence of ScaH dockerin D49, thioredoxin-fused (pETG-20A) (Ruminococcus flavefaciens FD-1) (main, as listed by the source): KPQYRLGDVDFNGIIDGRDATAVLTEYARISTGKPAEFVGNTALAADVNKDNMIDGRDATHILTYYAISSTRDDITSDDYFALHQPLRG

“dockerin of the peptidase ZP_06142181 (Peptidase-UNK-Doc) G11A; R12A” showed an other: pEC50 ([1]; parent: est. 8.6) of 8.6.
Work on “dockerin of the peptidase ZP_06142181 (Peptidase-UNK-Doc) G11A; R12A; G50A; R51A” yielded an other: pEC50 ([1]; parent: est. 8.6) of 7.6.
“dockerin of the peptidase ZP_06142181 (Peptidase-UNK-Doc) G50A; R51A” was tested, and the other: pEC50 ([1]; parent: est. 8.6) was 8.2.
“dockerin of ScaH, ZP_06142361 (Coh-Doc) G50A; R51A” showed an other: pEC50 ([1]; parent: est. 10.2) of 9.9.
“ScaC cohesin, His-tagged (pET21a) (domain or fragment)” was tested, and the Ka [2] was 3.54e+08 M⁻¹ and the Ka [3] was 2.69e+08 M⁻¹.
“ScaC cohesin of R. flavefaciens FD-1 (domain or fragment)” showed a Ka [4] of 1e+08 M⁻¹, a stoichiometry N [4] of 1 and a Ka [5] of 1e+08 M⁻¹. The stoichiometry N [5] was 1.
In the case of “dockerin of ScaH, ZP_06142361 (Coh-Doc) G11A; R12A”, the other: pEC50 ([1]; parent: est. 10.2) is reported as 10.
With “ScaE cohesin, His-tagged (pET21a) (domain or fragment)” the Ka [6] was 6.17e+07 M⁻¹ and the Ka [7] was 1.56e+06 M⁻¹.
For “dockerin of ScaH, ZP_06142361 (Coh-Doc) G11A; R12A; G50A; R51A”, the other: pEC50 ([1]; parent: est. 10.2) was 9.1.
